This experiment addresses T1, human ICOS (Inducible T-cell COStimulator) receptor on peripheral CD4 and CD8 T cells (human, UniProt Q9Y6W8 21-199).
T1 construct: Native ICOS on T cells of treated subjects; also called ICOS receptor; CD278
T1 sequence: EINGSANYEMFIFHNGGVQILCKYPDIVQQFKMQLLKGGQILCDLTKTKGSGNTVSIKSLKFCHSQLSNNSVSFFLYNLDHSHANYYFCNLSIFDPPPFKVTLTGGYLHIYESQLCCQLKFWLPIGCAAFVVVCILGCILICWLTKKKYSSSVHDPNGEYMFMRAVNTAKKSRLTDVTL
Put plainly: ICOS receptor occupancy on peripheral CD4 and CD8 T cells of dosed subjects (clinical pharmacodynamic analysis).

B1: H2L5 hIgG4PE (antibody, V domains shown)
VH: QVQLVQSGAEVKKPGSSVKVSCKASGYTFTDYAMHWVRQAPGQGLEWMGLISIYSDHTNYNQKFQGRVTITADKSTSTAYMELSSLRSEDTAVYYCGRNNYGNYGWYFDVWGQGTTVTVSS
VL: EIVLTQSPATLSLSPGERATLSCSASSSVSYMHWYQQKPGQAPRLLIYDTSKLASGIPARFSGSGSGTDYTLTISSLEPEDFAVYYCFQGSGYPYTFGQGTKLEIKR
notes: Humanized IgG4PE (S228P, L235E) monoclonal antibody; also called H2L5 IgG4PE; feladilimab
In the case of B1, the binding result is “binds”.

Source of the values: patent US20230149543A1 (GlaxoSmithKline, published 2023).
